The record followed here is patent publication US20070202121A1 (University of California, published 2007).

This assay has as its target T1, H-2 D^b MHC class I molecule (mouse, UniProt P01887 21-119; P01899 25-362, limits assumed).
T1 construct: whole, on cells
T1 sequence (MHC heavy, looked up): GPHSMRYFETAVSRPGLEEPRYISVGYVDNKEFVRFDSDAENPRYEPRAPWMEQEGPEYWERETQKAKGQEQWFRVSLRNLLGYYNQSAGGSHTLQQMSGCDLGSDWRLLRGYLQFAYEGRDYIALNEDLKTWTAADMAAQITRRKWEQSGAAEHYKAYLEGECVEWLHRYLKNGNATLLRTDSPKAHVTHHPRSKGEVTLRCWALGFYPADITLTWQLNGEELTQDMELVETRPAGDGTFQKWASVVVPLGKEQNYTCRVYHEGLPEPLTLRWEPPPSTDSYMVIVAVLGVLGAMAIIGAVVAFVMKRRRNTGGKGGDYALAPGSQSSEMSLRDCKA
T1 sequence (b2m, looked up): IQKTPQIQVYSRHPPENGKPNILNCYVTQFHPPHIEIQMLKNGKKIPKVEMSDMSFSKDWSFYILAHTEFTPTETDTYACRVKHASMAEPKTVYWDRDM
As to the kind of experiment: synthetic peptide pulsed on L cells expressing H-2 D^b, read by T cell hybridoma activation.

B1: SPAS-1 peptide STHVNHLHC (peptide)
peptide: STHVNHLHC
notes: Encoded by nucleotides 730 to 756 of the SPAS-1 (T) cDNA from TRAMP-C2 tumor cells
On to B1, for which the binding result is given as “binds”.
